The values that follow come from US20260103686A1, “MICROBIAL STRAIN, PROTEIN, AND METHOD FOR PRODUCING GALLIC ACID USING MICROBIAL STRAIN OR PROTEIN” (UNIVERSITY OF TSUKUBA, priority 2022, published 2026).

Where a chain is given by its changes, count along the chain named. Names and notes keep the numbering of the source.

Common to all, as to experiment: purified protein, by the assay type
Substrate in series [1]: O=C(O)c1ccc(O)c(O)c1
Format: biochemical, Hylemonella gracilis. The note with it: other: PCA substrate, 200 µM NADPH, 10 µM FAD, pH 7.9, 25° C., 340 nm.

Substrate in series [2]: O=C(O)c1ccc(O)cc1
To be noted: other: pHBA substrate, 200 µM NADPH, 10 µM FAD, pH 7.9, 25° C., 340 nm.

Substrate in series [3]: O=C(O)c1ccc(O)c(O)c1
To be noted: other: PCA substrate, 200 µM NADPH, 10 µM FAD, pH 7.9, 25° C., 340 nm.

B1: Hylemonella gracilis-derived PobA (HgPobA), protocatechuic acid 5-hydroxylase, wild type, SEQ ID NO: 20 (Hylemonella gracilis ATCC 19624) (protein)
chain: MSYPTRTQVAIIGAGPSGLMLGALLHKAGIDTVVLERQSGDYVLGRIRAGVLEQVTMDLMDEIGVGARMHQEGLVHGGFDMLFQGQRHRIDMNRLTGGQNVMVYGQTEVTRDLMDARQQAGLTTIYEAANVAIHDFGSGKPRVTYEKDGKTHELQCDFIAGCDGFHGVCRDTVKKSASASAIREYEKVYNFGWLGLLSDTPPVHHELIYVNSERGFALCSQRSATRSRYYLQVPLTDKVEQWSDQAFWDELKLRLDPQAREHLVTGPSIEKSIAPLRSFVTEPLRFGRLFLAGDAGHIVPPTGAKGLNLAATDVKYLSAALTEFYQGKSEAGINHYSERCLKRIWRAERFSWWFTSLMHRFPENGEIGQKLQEAELDYIVHSETGARSVAENYVGLPLDFGA
Take B1: in series [1], the Km (commonly the substrate concentration at which the rate is half of its maximum) was determined as 260 µM; the kcat (usually the maximal rate divided by the concentration of active sites) worked out at 0.74 s⁻¹; the kcat/Km (as a rule, the turnover number divided by the Michaelis constant) came out at 2800 M⁻¹ s⁻¹. Moreover, in series [2], the Km was 35 µM, the kcat stood at 5.6 s⁻¹ and the kcat/Km turned out to be 160000 M⁻¹ s⁻¹.

B2: Hylemonella gracilis-derived PobA (HgPobA, SEQ ID NO: 20) variant HgPobA-TY, T302A/Y393F (gene SEQ ID NO: 37) (Hylemonella gracilis ATCC 19624; T302A/Y393F) (protein)
chain: B1 chain with T302A, Y393F
In the case of B2, the Km in series [3] came out at 41 µM. For the same protein, in series [2], the Km stood at 34 µM, the kcat worked out at 3.1 s⁻¹ and the kcat/Km came out at 91000 M⁻¹ s⁻¹.
